Some targets named below: DRB1*0301; DRB1*0405; DRB5*0101; DRB1*1302; DRB1*0404; DRB1*0701; DRB1*0901; DRB1*0101; DRB1*1501; DRB1*0401; DRB1*1101; DRB1*0802; DRB4*0101.
Common to all, as to experiment: binding to purified HLA
Holding throughout (conditions): chains peptide; modification not given

For orientation: IC50 means the point on the concentration scale where inhibition reaches its midpoint. A higher IC50 goes with weaker potency in that assay. Turning to AKFVAAWTLKAAA [SEQ ID NO: 3], the IC50 in the test with DRB1*0301 amounted to 289 nM; with DRB1*0405 it was 32 nM; with DRB5*0101 it was 19 nM; in the test with DRB1*1302, 367 nM; with DRB1*0404, 0.79 nM; with DRB1*0701, 97 nM. Besides, the IC50 amounted to 50 nM in the test with DRB1*0901; 4 nM with DRB1*0101; 37 nM with DRB1*1501; 1.4 nM with DRB1*0401; 9.1 nM in the test with DRB1*1101; 9.5 nM with DRB1*0802. In the test with DRB4*0101, this molecule gave an IC50 of 447 nM.

The record behind these values is patent US20160114035A1.
